Numbering of substitutions follows the chain as printed. Numbers in names are those of the source. Each block holds one binder with its values, some of them ahead of it.
Assays:
[1] = target: T1, Src-phosphorylated C3G (pC3G), wild type (human, UniProt Q13905-1 4-1077, phosphotyrosines (phosphorylated in vitro by Src; sites not stated)); assay: cell-based or functional assay
T1 sequence (looked up): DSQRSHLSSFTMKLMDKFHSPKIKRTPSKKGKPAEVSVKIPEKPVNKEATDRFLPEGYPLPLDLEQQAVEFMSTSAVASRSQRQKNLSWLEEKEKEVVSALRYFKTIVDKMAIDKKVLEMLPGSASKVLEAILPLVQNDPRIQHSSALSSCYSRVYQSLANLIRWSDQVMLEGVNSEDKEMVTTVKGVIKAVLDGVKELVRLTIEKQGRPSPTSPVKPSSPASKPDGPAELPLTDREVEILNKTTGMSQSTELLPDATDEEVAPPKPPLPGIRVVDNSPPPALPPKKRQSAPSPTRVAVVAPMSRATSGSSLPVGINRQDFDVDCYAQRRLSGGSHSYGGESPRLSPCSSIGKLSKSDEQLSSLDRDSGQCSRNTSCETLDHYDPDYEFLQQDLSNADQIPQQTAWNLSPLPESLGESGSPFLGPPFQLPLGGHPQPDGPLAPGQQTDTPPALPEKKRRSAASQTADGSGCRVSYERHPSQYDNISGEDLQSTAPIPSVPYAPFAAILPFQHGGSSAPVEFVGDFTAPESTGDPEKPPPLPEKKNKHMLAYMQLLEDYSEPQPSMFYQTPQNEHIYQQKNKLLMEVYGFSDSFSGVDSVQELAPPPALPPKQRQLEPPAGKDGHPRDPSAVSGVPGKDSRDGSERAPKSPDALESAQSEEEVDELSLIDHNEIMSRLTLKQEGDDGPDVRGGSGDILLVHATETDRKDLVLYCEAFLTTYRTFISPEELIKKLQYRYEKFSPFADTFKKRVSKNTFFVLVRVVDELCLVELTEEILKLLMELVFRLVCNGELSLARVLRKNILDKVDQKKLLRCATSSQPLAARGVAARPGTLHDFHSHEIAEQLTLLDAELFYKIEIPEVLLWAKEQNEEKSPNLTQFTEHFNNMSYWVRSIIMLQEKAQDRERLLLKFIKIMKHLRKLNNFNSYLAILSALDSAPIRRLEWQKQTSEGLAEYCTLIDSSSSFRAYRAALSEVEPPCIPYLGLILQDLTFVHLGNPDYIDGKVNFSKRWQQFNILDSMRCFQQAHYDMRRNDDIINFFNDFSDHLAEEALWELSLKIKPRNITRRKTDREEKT

[2] = target: T2, C3G full-length wild type (human, isoform a, residues 4-1077) (human, UniProt Q13905-1 4-1077); assay: cell-based or functional assay
T2 sequence (looked up): T1 sequence (looked up)

[3] = target: T3, Src-phosphorylated C3G-AAPA (pC3G-AAPA) (human, UniProt Q13905-1 4-1077, phosphotyrosines (phosphorylated in vitro by Src; sites not stated)); assay: ITC; single-PRM mutants of C3G in the cell titrated with full-length CrkL or CrkL-SH3N; 25 °C; 1:1 model in SEDPHAT; N is the competent fraction of C3G; conditions: both partners purified
T3 chain: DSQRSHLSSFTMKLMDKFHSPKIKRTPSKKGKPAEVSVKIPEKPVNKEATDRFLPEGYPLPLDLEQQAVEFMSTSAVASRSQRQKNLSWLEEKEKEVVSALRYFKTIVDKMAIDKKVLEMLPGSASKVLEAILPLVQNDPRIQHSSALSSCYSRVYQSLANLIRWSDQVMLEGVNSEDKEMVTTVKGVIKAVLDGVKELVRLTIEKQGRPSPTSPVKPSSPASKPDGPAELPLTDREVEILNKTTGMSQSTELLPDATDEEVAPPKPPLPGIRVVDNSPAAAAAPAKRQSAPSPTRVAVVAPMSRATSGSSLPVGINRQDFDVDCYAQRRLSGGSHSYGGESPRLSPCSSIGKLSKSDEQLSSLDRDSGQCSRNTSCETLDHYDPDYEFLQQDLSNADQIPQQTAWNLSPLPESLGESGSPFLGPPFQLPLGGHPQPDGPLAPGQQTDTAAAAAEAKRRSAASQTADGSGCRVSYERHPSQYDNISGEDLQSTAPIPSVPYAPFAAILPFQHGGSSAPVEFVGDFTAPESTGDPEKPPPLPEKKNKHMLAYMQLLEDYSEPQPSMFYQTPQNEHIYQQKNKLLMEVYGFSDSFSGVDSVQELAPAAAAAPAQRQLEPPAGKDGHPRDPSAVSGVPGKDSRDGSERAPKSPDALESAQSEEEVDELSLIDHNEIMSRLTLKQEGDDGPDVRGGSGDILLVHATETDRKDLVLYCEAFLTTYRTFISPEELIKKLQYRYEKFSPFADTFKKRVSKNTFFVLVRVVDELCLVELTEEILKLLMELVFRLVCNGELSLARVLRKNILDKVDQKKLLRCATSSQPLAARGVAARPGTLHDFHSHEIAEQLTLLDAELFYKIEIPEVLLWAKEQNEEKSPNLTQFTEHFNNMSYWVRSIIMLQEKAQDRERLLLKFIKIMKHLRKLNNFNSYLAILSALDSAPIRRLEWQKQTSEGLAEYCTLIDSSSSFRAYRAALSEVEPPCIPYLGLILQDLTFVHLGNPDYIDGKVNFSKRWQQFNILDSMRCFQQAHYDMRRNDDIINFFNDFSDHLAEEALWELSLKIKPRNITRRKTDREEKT

C3G-AAPA-Y554H = C3G-AAPA-Y554H (human, UniProt Q13905-1 4-1077, Y554H); assay: as above; conditions: both partners purified
[4] = target: T2, C3G full-length wild type (human, …); assay: AUC; sedimentation velocity of C3G with increasing CrkL; 20 mM Tris-HCl, 300 mM NaCl, pH 7.5, 20 °C, 48,000 rpm; isotherms fitted with three symmetric sites (Gilbert-Jenkins), microscopic kd; conditions: both partners purified
[5] = target: T2, C3G full-length wild type (human, …); assay: ITC; same three titrations of C3G with CrkL, global fit in SEDPHAT, three symmetric binding sites, microscopic kd; conditions: both partners purified
[6] = target: T1, Src-phosphorylated C3G (pC3G), wild type; assay: cell-based or functional assay; remark: listed apart in the source
[7] = target: T1, Src-phosphorylated C3G (pC3G), wild type; assay: ITC; full-length C3G or pC3G in the cell titrated with CrkL, CrkL fragments, CrkL-W160S or CrkII; 25 °C; 300 mM NaCl, pH 7.5; parameters in Table S11; conditions: both partners purified
[8] = target: T2, C3G full-length wild type (human, …); assay: ITC; C3G in the cell titrated with CrkL; 25 °C; 300 mM NaCl, pH 7.5 (Tris-HCl or Na-phosphate); three titrations fitted one by one, independent-site model (MicroCal Origin); conditions: both partners purified
[9] = target: T1, Src-phosphorylated C3G (pC3G), wild type; assay: pull-down; 30 µg GST-CrkL (full-length or SH3N) with 30 µg C3G on glutathione-agarose; 20 mM Tris-HCl, 150 mM NaCl, pH 7.5, 0.01% BSA; 30 min, 4 °C; washes with 0.1% Triton X-100; coomassie or western blot; conditions: both partners purified

- AC50 of the dose-response activation of the GEF activity of pC3G (0.2 µM) on Rap1b:mant-dGDP [1]: 12.8 µM
- kmax of the dose-response activation of the GEF activity of pC3G (0.2 µM) on Rap1b:mant-dGDP [1]: 0.0139 s^-1 µM^-1
- AC50 of the dose-response activation of the GEF activity of C3G (1 µM) on Rap1b:mant-dGDP [2]: 26800 nM
- kmax of the dose-response activation of the GEF activity of C3G (1 µM) on Rap1b:mant-dGDP [2]: 6300 M⁻¹ s⁻¹
- stoichiometry N [3]: ~0.1
- Kd (C3G-AAPA-Y554H): 800 nM
- stoichiometry N (C3G-AAPA-Y554H): ~0.5 molecules of SH3N per molecule of C3G-AAPA-Y554H
B1: CrkL-SH3N (residues 125-182) (domain or fragment, human, UniProt P46109 125-182, looked up)
chain: LEYVRTLYDFPGNDAEDLPFKKGEILVIIEKPEEQWWSARNKDGRVGMIPVPYVEKLV
notes: human CrkL, SH3N domain, residues 125-182, in pETEV15b; also called SH3N domain of CrkL; isolated SH3N domain; source: E. coli BL21 (DE3), purified (His-tagged, purified in a similar manner as C3G)

- Kd [4]: 1400 nM
- koff [4]: > 0.001 s⁻¹
- Kd [5]: 2300 nM
- GEF activity of pC3G (0.2 µM) on Rap1b:mant-dGDP with 5 µM CrkL, fold over pC3G alone [6]: ~9 fold
- Kd [7]: 1300 nM
- AC50 of the dose-response activation of the GEF activity of pC3G (0.2 µM) on Rap1b:mant-dGDP [1]: 1.7 µM
- kmax of the dose-response activation of the GEF activity of pC3G (0.2 µM) on Rap1b:mant-dGDP [1]: 0.0342 s^-1 µM^-1
- AC50 of the dose-response activation of the GEF activity of C3G (1 µM) on Rap1b:mant-dGDP [2]: 22400 nM
- kmax of the dose-response activation of the GEF activity of C3G (1 µM) on Rap1b:mant-dGDP [2]: 13400 M⁻¹ s⁻¹
- Kd [8]: 2800 to 3600 nM
- stoichiometry N [8]: ~3 molecules of CrkL per molecule of C3G
B2: CrkL, full-length (human) (natural protein, UniProt P46109 1-303, looked up)
chain: MSSARFDSSDRSAWYMGPVSRQEAQTRLQGQRHGMFLVRDSSTCPGDYVLSVSENSRVSHYIINSLPNRRFKIGDQEFDHLPALLEFYKIHYLDTTTLIEPAPRYPSPPMGSVSAPNLPTAEDNLEYVRTLYDFPGNDAEDLPFKKGEILVIIEKPEEQWWSARNKDGRVGMIPVPYVEKLVRSSPHGKHGNRNSNSYGIPEPAHAYAQPQTTTPLPAVSGSPGAAITPLPSTQNGPVFAKAIQKRVPCAYDKTALALEVGDIVKVTRMNINGQWEGEVNGRKGLFPFTHVKIFDPQNPDENE
notes: Monomer by sedimentation velocity and DLS (theoretical mass 33.7 kDa); Purification 'in a similar manner' as C3G would include TEV cleavage of the tag; also called Crk-like protein; wild type CrkL; source: E. coli BL21 (DE3), purified (His-tagged, purified in a similar manner as C3G)

- binding result [9]: binds
B3: GST-CrkL R39K (natural protein, human, UniProt P46109 1-303, looked up)
chain: B2 chain with R39K
notes: human CrkL, full-length, R39K; the results print 'R93K alone', the methods and the sentence before print R39K; also called R93K; source: E. coli BL21 (DE3), purified GST fusion

From article PMC9896810, “Crk proteins activate the Rap1 guanine nucleotide exchange factor C3G by segregated adaptor-dependent and -independent mechanisms” (Cell Communication and Signaling : CCS, 2023)
